The record followed here is the supplement of paper PMC9112550, “Optimization of the antimicrobial peptide Bac7 by deep mutational scanning” (BMC Biology, 2022).

The subject of the data set is Escherichia coli TOP10. Briefly: shrunken log2 fold change of peptide-encoding DNA abundance (4.5 h post-induction vs induction); higher = less antimicrobial activity (less host growth inhibition). Conditions: time post-induction: 4.5 h; library: site-saturation at positions 5, 18, 19, 20.
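Also: peptides expressed intracellularly from a pBAD plasmid library in pooled LB shake-flask culture, induced with 0.3% L-arabinose, DNA abundance read by NGS, three biological replicates, DESeq2 with apeglm shrinkage.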

Regarding RRIRKRPPRLPRPRPRPHRPPRP, the “shrunken log2 fold change” value was 0.172.

Turning to RRIRVRPPRLPRPRPRPKQPPRP, the “shrunken log2 fold change” value turned out to be 0.11.

As for RRIRDRPPRLPRPRPRPDPVPRP, the “shrunken log2 fold change” value is 0.203.

Regarding RRIRQRPPRLPRPRPRPCKTPRP, the “shrunken log2 fold change” value is -0.01.

Consider RRIRGRPPRLPRPRPRPHDEPRP, for which the “shrunken log2 fold change” value worked out at 0.136.

As to RRIRLRPPRLPRPRPRPEKNPRP, the “shrunken log2 fold change” value amounted to 0.0916.

As to RRIRIRPPRLPRPRPRPFHRPRP, the “shrunken log2 fold change” value was -0.152.

In the case of RRIRVRPPRLPRPRPRPEWHPRP, the “shrunken log2 fold change” value is -0.158.

Turning to RRIRIRPPRLPRPRPRPEYQPRP, the “shrunken log2 fold change” value stood at 0.00783.

Turning to RRIRHRPPRLPRPRPRPNKQPRP, the “shrunken log2 fold change” value is -0.545.

In the case of RRIRGRPPRLPRPRPRPRVQPRP, the “shrunken log2 fold change” value was found to be 0.218.

As to RRIRLRPPRLPRPRPRPKPYPRP, the “shrunken log2 fold change” value is 0.00713.

For RRIRCRPPRLPRPRPRPCGVPRP, the “shrunken log2 fold change” value amounted to 0.0257.

Turning to RRIRCRPPRLPRPRPRPPSIPRP, the “shrunken log2 fold change” value was found to be 0.0499.

In the case of RRIRIRPPRLPRPRPRPMPRPRP, the “shrunken log2 fold change” value came out at 0.0826.

Consider RRIRQRPPRLPRPRPRPVNKPRP, for which the “shrunken log2 fold change” value was 0.112.

As to RRIRERPPRLPRPRPRPQNEPRP, the “shrunken log2 fold change” value was -0.581.

With RRIRMRPPRLPRPRPRPLDRPRP, the “shrunken log2 fold change” value came to 0.816.

Take RRIRNRPPRLPRPRPRPNVTPRP: the “shrunken log2 fold change” value was -0.361.

In the case of RRIRRRPPRLPRPRPRPACGPRP, the “shrunken log2 fold change” value amounted to 0.429.

For RRIRVRPPRLPRPRPRPCFVPRP, the “shrunken log2 fold change” value was -0.253.

On to RRIRDRPPRLPRPRPRPTESPRP, for which the “shrunken log2 fold change” value is -0.00177.

With RRIRHRPPRLPRPRPRPQTTPRP, the “shrunken log2 fold change” value is -0.0121.

Regarding RRIRMRPPRLPRPRPRPRVFPRP, the “shrunken log2 fold change” value amounted to 0.947.

Take RRIRARPPRLPRPRPRPVTHPRP: the “shrunken log2 fold change” value is 0.105.

RRIRKRPPRLPRPRPRPWYLPRP: the “shrunken log2 fold change” value was found to be 0.0253.

Turning to RRIRYRPPRLPRPRPRPVIWPRP, the “shrunken log2 fold change” value was -0.262.

Turning to RRIRIRPPRLPRPRPRPVHVPRP, the “shrunken log2 fold change” value is -0.168.

As to RRIRERPPRLPRPRPRPLHAPRP, the “shrunken log2 fold change” value was -0.0579.

RRIRSRPPRLPRPRPRPTYWPRP: the “shrunken log2 fold change” value is -0.123.

Consider RRIRLRPPRLPRPRPRPIMLPRP, for which the “shrunken log2 fold change” value is -1.12.

Turning to RRIRFRPPRLPRPRPRPNTRPRP, the “shrunken log2 fold change” value is -0.39.

For RRIRHRPPRLPRPRPRPSQNPRP, the “shrunken log2 fold change” value was -0.0324.

On to RRIRHRPPRLPRPRPRPLAFPRP, for which the “shrunken log2 fold change” value was -0.2.

On to RRIRWRPPRLPRPRPRPFSHPRP, for which the “shrunken log2 fold change” value was -0.241.

Regarding RRIRGRPPRLPRPRPRPKNFPRP, the “shrunken log2 fold change” value is 0.0583.

For RRIRDRPPRLPRPRPRPLEMPRP, the “shrunken log2 fold change” value came to 0.0813.

RRIRKRPPRLPRPRPRPAEDPRP: the “shrunken log2 fold change” value amounted to 1.33.

On to RRIRRRPPRLPRPRPRPCYSPRP, for which the “shrunken log2 fold change” value is -0.00167.

With RRIRSRPPRLPRPRPRPWDKPRP, the “shrunken log2 fold change” value is -0.252.

In the case of RRIRTRPPRLPRPRPRPSNDPRP, the “shrunken log2 fold change” value is -0.557.

As for RRIRTRPPRLPRPRPRPGRNPRP, the “shrunken log2 fold change” value was -0.0275.

As to RRIRKRPPRLPRPRPRPGSRPRP, the “shrunken log2 fold change” value is -0.171.

On to RRIRMRPPRLPRPRPRPNFPPRP, for which the “shrunken log2 fold change” value is -0.186.

As to RRIRFRPPRLPRPRPRPCICPRP, the “shrunken log2 fold change” value was -0.136.

For RRIRHRPPRLPRPRPRPTVIPRP, the “shrunken log2 fold change” value came to 0.0211.

Take RRIRVRPPRLPRPRPRPQRCPRP: the “shrunken log2 fold change” value was 0.00942.

With RRIRRRPPRLPRPRPRPMTQPRP, the “shrunken log2 fold change” value was determined as 0.176.

Take RRIRMRPPRLPRPRPRPQITPRP: the “shrunken log2 fold change” value is -0.166.

In the case of RRIRIRPPRLPRPRPRPAHEPRP, the “shrunken log2 fold change” value came to 0.215.

On to RRIRARPPRLPRPRPRPPEIPRP, for which the “shrunken log2 fold change” value stood at 0.301.

For RRIRARPPRLPRPRPRPLDPPRP, the “shrunken log2 fold change” value stood at 0.244.

Regarding RRIRCRPPRLPRPRPRPDSRPRP, the “shrunken log2 fold change” value is 0.0735.

Take RRIRARPPRLPRPRPRPGWLPRP: the “shrunken log2 fold change” value was 0.285.

With RRIRWRPPRLPRPRPRPTHDPRP, the “shrunken log2 fold change” value is 0.196.

Consider RRIRRRPPRLPRPRPRPKTSPRP, for which the “shrunken log2 fold change” value stood at 2.22.

Consider RRIRFRPPRLPRPRPRPNWPPRP, for which the “shrunken log2 fold change” value was found to be 0.333.

Consider RRIRERPPRLPRPRPRPRLSPRP, for which the “shrunken log2 fold change” value worked out at 0.134.

RRIRYRPPRLPRPRPRPALSPRP: the “shrunken log2 fold change” value was -0.0367.

As to RRIRIRPPRLPRPRPRPYNLPRP, the “shrunken log2 fold change” value was -0.391.

On to RRIRWRPPRLPRPRPRPHWQPRP, for which the “shrunken log2 fold change” value is -0.00204.

Consider RRIRYRPPRLPRPRPRPMQWPRP, for which the “shrunken log2 fold change” value was -0.00277.

Turning to RRIRERPPRLPRPRPRPQMDPRP, the “shrunken log2 fold change” value amounted to 0.178.

For the sequence RRIRWRPPRLPRPRPRPVICPRP, the “shrunken log2 fold change” value is -0.151.

For RRIRSRPPRLPRPRPRPKRGPRP, the “shrunken log2 fold change” value was determined as 0.0665.

Take RRIRMRPPRLPRPRPRPKSAPRP: the “shrunken log2 fold change” value stood at 0.389.

For RRIRKRPPRLPRPRPRPVDPPRP, the “shrunken log2 fold change” value amounted to 0.417.

Consider RRIRSRPPRLPRPRPRPWAQPRP, for which the “shrunken log2 fold change” value was -0.0414.

For RRIRTRPPRLPRPRPRPQMGPRP, the “shrunken log2 fold change” value was -0.0284.

Regarding RRIRIRPPRLPRPRPRPCTMPRP, the “shrunken log2 fold change” value is -0.0242.

As for RRIRARPPRLPRPRPRPVLVPRP, the “shrunken log2 fold change” value amounted to 0.0133.

RRIRTRPPRLPRPRPRPITSPRP: the “shrunken log2 fold change” value was 0.0903.

Consider RRIRHRPPRLPRPRPRPYCWPRP, for which the “shrunken log2 fold change” value is -0.352.

RRIRPRPPRLPRPRPRPAARPRP: the “shrunken log2 fold change” value was 0.727.

RRIRPRPPRLPRPRPRPIAWPRP: the “shrunken log2 fold change” value was found to be 0.266.

In the case of RRIRCRPPRLPRPRPRPRKIPRP, the “shrunken log2 fold change” value turned out to be 0.245.

For the sequence RRIRARPPRLPRPRPRPSFWPRP, the “shrunken log2 fold change” value stood at 0.354.

RRIRHRPPRLPRPRPRPRELPRP: the “shrunken log2 fold change” value was 0.234.

On to RRIRMRPPRLPRPRPRPQKWPRP, for which the “shrunken log2 fold change” value is -0.00664.

Take RRIRFRPPRLPRPRPRPANVPRP: the “shrunken log2 fold change” value was -0.246.

Turning to RRIRRRPPRLPRPRPRPPVQPRP, the “shrunken log2 fold change” value worked out at 0.366.

For the sequence RRIRHRPPRLPRPRPRPDGRPRP, the “shrunken log2 fold change” value was 0.172.

For RRIRLRPPRLPRPRPRPWFWPRP, the “shrunken log2 fold change” value is -0.0455.

For the sequence RRIRARPPRLPRPRPRPYFEPRP, the “shrunken log2 fold change” value was -0.577.

On to RRIRTRPPRLPRPRPRPWSDPRP, for which the “shrunken log2 fold change” value is -0.0131.

Regarding RRIRMRPPRLPRPRPRPPKPPRP, the “shrunken log2 fold change” value is 0.717.

Take RRIRDRPPRLPRPRPRPWPKPRP: the “shrunken log2 fold change” value was -0.149.

With RRIRVRPPRLPRPRPRPHEMPRP, the “shrunken log2 fold change” value is -0.058.

For the sequence RRIRFRPPRLPRPRPRPGNNPRP, the “shrunken log2 fold change” value is -0.276.

As to RRIRCRPPRLPRPRPRPFNEPRP, the “shrunken log2 fold change” value is -0.799.

In the case of RRIRHRPPRLPRPRPRPMVKPRP, the “shrunken log2 fold change” value is -0.0243.
